{"source": "paper PMC314469", "about": "“Protein Interaction Networks by Proteome Peptide Scanning” (PLoS Biology, 2004)", "binders": {"B1": {"name": "YKR077W 157-170 (peptide)", "chain": "SPKKLASPRTPNAN"}, "B2": {"name": "YPL004C 14-27 (peptide)", "chain": "TAAELQAPPPPPSS"}, "B3": {"name": "YHR082C 909-922 (peptide)", "chain": "SFVGFPKPLLPRNH"}, "B4": {"name": "YNR014W 177-190 (peptide)", "chain": "SPNDHSDPSSPSNR"}, "B5": {"name": "YPL186C 118-131 (peptide)", "chain": "SELYYEGPETPTPS"}, "B6": {"name": "YLR178C 145-158 (peptide)", "chain": "TLIEYMGPAPPKGS"}, "B7": {"name": "YGL021W 219-232 (peptide)", "chain": "SENRLRTPLKPLVN"}, "B8": {"name": "YPL100W 474-487 (peptide)", "chain": "TFSIYSIPSKPGES"}, "B9": {"name": "YOL111C 18-31 (peptide)", "chain": "TLATLTEPKLPKSY"}, "B10": {"name": "YLR301W 124-137 (peptide)", "chain": "SFRELWQPVDPSRE"}, "B11": {"name": "YOR034C 339-352 (peptide)", "chain": "TLKKFVLPSLPRKN"}, "B12": {"name": "YGR086C 14-27 (peptide)", "chain": "TASQLQNPPPPPST"}, "B13": {"name": "YDL225W 441-454 (peptide)", "chain": "SPKFLNSPDLPERT"}, "B14": {"name": "YGL235W 82-95 (peptide)", "chain": "SFTRMPLPTPPIEG"}, "B15": {"name": "YPR039W 3-16 (peptide)", "chain": "SFDYLFHPFVPSTI"}, "B16": {"name": "YNL027W 321-334 (peptide)", "chain": "SPSTHAAPVTPIIS"}, "B17": {"name": "YNR012W 89-102 (peptide)", "chain": "SLDNFYNPLGPEDR"}, "B18": {"name": "YLL002W 276-289 (peptide)", "chain": "SLAVYNIPLFPDDP"}, "B19": {"name": "YGR092W 484-497 (peptide)", "chain": "TLRSMIPPFTPQLD"}, "B20": {"name": "YJL195C 85-98 (peptide)", "chain": "SWAVLPVPGGPVMY"}, "B21": {"name": "YCR088W 389-402 (peptide)", "chain": "SPKPFSKPQEPVKA"}, "B22": {"name": "YAL028W 272-285 (peptide)", "chain": "SPKKHVSPSRPPSV"}, "B23": {"name": "YDL035C 918-931 (peptide)", "chain": "SENYLVKPTIPGTT"}, "B24": {"name": "YDL195W 822-835 (peptide)", "chain": "TEGKYAPPSQPSMA"}, "B25": {"name": "YOR032C 362-375 (peptide)", "chain": "SFVHLTEPSQPLSD"}, "B26": {"name": "YOR155C 390-403 (peptide)", "chain": "SLQQFYNPESPIQP"}, "B27": {"name": "YHR072W 246-259 (peptide)", "chain": "SLVKFSSPMTPLLE"}, "B28": {"name": "YIL101C 572-585 (peptide)", "chain": "SPRHYNVPSSPIAP"}, "B29": {"name": "YMR158W-A 93-106 (peptide)", "chain": "SWLTMLPPMAPLLS"}, "B30": {"name": "YER017C 223-236 (peptide)", "chain": "SPFTFLFPFLPTII"}, "B31": {"name": "YPL066W 70-83 (peptide)", "chain": "SFTPFNRPSDPSNG"}, "B32": {"name": "YLL016W 216-229 (peptide)", "chain": "SETSHHSPSAPFQR"}, "B33": {"name": "YPL154C 366-379 (peptide)", "chain": "TPMDFPEPVGPLAI"}, "B34": {"name": "YLR198C 4-17 (peptide)", "chain": "TLFRFIVPFNPYFS"}, "B35": {"name": "YLR422W 982-995 (peptide)", "chain": "TLEWLLTPYTPGDD"}, "B36": {"name": "YJL050W 730-743 (peptide)", "chain": "SPVNLLKPFNPTLP"}, "B37": {"name": "YHR007C 237-250 (peptide)", "chain": "TPINFVFPNLPLEH"}, "B38": {"name": "YMR036C 409-422 (peptide)", "chain": "SFRKLASPSNPNFF"}, "B39": {"name": "YOL070C 304-317 (peptide)", "chain": "TEEILPTPVQPGGH"}, "B40": {"name": "YNL043C 79-92 (peptide)", "chain": "SPFSLFIPTIPATT"}, "B41": {"name": "YOR106W 114-127 (peptide)", "chain": "SLFPLKTPISPGTS"}, "B42": {"name": "YMR177W 252-265 (peptide)", "chain": "SLSALVGPVIPHTI"}, "B43": {"name": "YLR163C 237-250 (peptide)", "chain": "SPVPLGSPRGPLPV"}, "B44": {"name": "YNL243W 594-607 (peptide)", "chain": "SPLSWSGPLTPPTF"}, "B45": {"name": "YPR190C 407-420 (peptide)", "chain": "TEDGFVIPALPAAV"}, "B46": {"name": "YER003C 229-242 (peptide)", "chain": "SPSDFNKPDLPELI"}, "B47": {"name": "YAL047C 546-559 (peptide)", "chain": "SLISMETPEQPHQQ"}, "B48": {"name": "YKL146W 143-156 (peptide)", "chain": "SPSQYQYPSQPALS"}, "B49": {"name": "YOR184W 245-258 (peptide)", "chain": "TLHELGVPITPIAF"}, "B50": {"name": "YHR182W 732-745 (peptide)", "chain": "TAPIHSTPKPPPND"}, "B51": {"name": "YDR096W 584-597 (peptide)", "chain": "TLPPLSSPMNPNGH"}, "B52": {"name": "YML083C 47-60 (peptide)", "chain": "SPRSLPTPILPSMS"}, "B53": {"name": "YPR090W 8-21 (peptide)", "chain": "TAWDMVPPYSPLSE"}, "B54": {"name": "YPL014W 217-230 (peptide)", "chain": "SLTSLPPPPPPQFS"}, "B55": {"name": "YPL089C 234-247 (peptide)", "chain": "SPSTMDFPKLPSFQ"}, "B56": {"name": "YLR030W 45-58 (peptide)", "chain": "TFRDMDLPQHPVIH"}, "B57": {"name": "YGL104C 357-370 (peptide)", "chain": "SLLIHSLPRKPLLM"}, "B58": {"name": "YMR287C 119-132 (peptide)", "chain": "SWRSLTKPKIPLYK"}}}
{"molecular_target": "T1, Myo5 SH3 (MYO5_YEAST), Q04439", "T1 chain": "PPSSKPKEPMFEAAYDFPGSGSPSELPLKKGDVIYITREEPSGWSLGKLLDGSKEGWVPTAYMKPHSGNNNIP", "test": "SPOT array"}
{"binder": "B1", "normalised SPOT signal, Boehringer light units (BLU); mean over the file's lines of this peptide": 276}
{"binder": "B2", "normalised SPOT signal, Boehringer light units (BLU); mean over the file's lines of this peptide": 315}
{"binder": "B3", "normalised SPOT signal, Boehringer light units (BLU); mean over the file's lines of this peptide": 205}
{"binder": "B4", "normalised SPOT signal, Boehringer light units (BLU); mean over the file's lines of this peptide": 76.1}
{"binder": "B5", "normalised SPOT signal, Boehringer light units (BLU); mean over the file's lines of this peptide": 50.5}
{"binder": "B6", "normalised SPOT signal, Boehringer light units (BLU); mean over the file's lines of this peptide": 133}
{"binder": "B7", "normalised SPOT signal, Boehringer light units (BLU); mean over the file's lines of this peptide": 272}
{"binder": "B8", "normalised SPOT signal, Boehringer light units (BLU); mean over the file's lines of this peptide": 227}
{"binder": "B9", "normalised SPOT signal, Boehringer light units (BLU); mean over the file's lines of this peptide": 18}
{"binder": "B10", "normalised SPOT signal, Boehringer light units (BLU); mean over the file's lines of this peptide": 97.3}
{"binder": "B11", "normalised SPOT signal, Boehringer light units (BLU); mean over the file's lines of this peptide": 504}
{"binder": "B12", "normalised SPOT signal, Boehringer light units (BLU); mean over the file's lines of this peptide": 168}
{"binder": "B13", "normalised SPOT signal, Boehringer light units (BLU); mean over the file's lines of this peptide": 183}
{"binder": "B14", "normalised SPOT signal, Boehringer light units (BLU); mean over the file's lines of this peptide": 287}
{"binder": "B15", "normalised SPOT signal, Boehringer light units (BLU); mean over the file's lines of this peptide": 23.1}
{"binder": "B16", "normalised SPOT signal, Boehringer light units (BLU); mean over the file's lines of this peptide": 53.3}
{"binder": "B17", "normalised SPOT signal, Boehringer light units (BLU); mean over the file's lines of this peptide": 143}
{"binder": "B18", "normalised SPOT signal, Boehringer light units (BLU); mean over the file's lines of this peptide": 91.7}
{"binder": "B19", "normalised SPOT signal, Boehringer light units (BLU); mean over the file's lines of this peptide": 413}
{"binder": "B20", "normalised SPOT signal, Boehringer light units (BLU); mean over the file's lines of this peptide": 69.2}
{"binder": "B21", "normalised SPOT signal, Boehringer light units (BLU); mean over the file's lines of this peptide": 359}
{"binder": "B22", "normalised SPOT signal, Boehringer light units (BLU); mean over the file's lines of this peptide": 1430}
{"binder": "B23", "normalised SPOT signal, Boehringer light units (BLU); mean over the file's lines of this peptide": 61.5}
{"binder": "B24", "normalised SPOT signal, Boehringer light units (BLU); mean over the file's lines of this peptide": 223}
{"binder": "B25", "normalised SPOT signal, Boehringer light units (BLU); mean over the file's lines of this peptide": 99.7}
{"binder": "B26", "normalised SPOT signal, Boehringer light units (BLU); mean over the file's lines of this peptide": 131}
{"binder": "B27", "normalised SPOT signal, Boehringer light units (BLU); mean over the file's lines of this peptide": 249}
{"binder": "B28", "normalised SPOT signal, Boehringer light units (BLU); mean over the file's lines of this peptide": 233}
{"binder": "B29", "normalised SPOT signal, Boehringer light units (BLU); mean over the file's lines of this peptide": 505}
{"binder": "B30", "normalised SPOT signal, Boehringer light units (BLU); mean over the file's lines of this peptide": 366}
{"binder": "B31", "normalised SPOT signal, Boehringer light units (BLU); mean over the file's lines of this peptide": 208}
{"binder": "B32", "normalised SPOT signal, Boehringer light units (BLU); mean over the file's lines of this peptide": 257}
{"binder": "B33", "normalised SPOT signal, Boehringer light units (BLU); mean over the file's lines of this peptide": 175}
{"binder": "B34", "normalised SPOT signal, Boehringer light units (BLU); mean over the file's lines of this peptide": 882}
{"binder": "B35", "normalised SPOT signal, Boehringer light units (BLU); mean over the file's lines of this peptide": 164}
{"binder": "B36", "normalised SPOT signal, Boehringer light units (BLU); mean over the file's lines of this peptide": 123}
{"binder": "B37", "normalised SPOT signal, Boehringer light units (BLU); mean over the file's lines of this peptide": 81.8}
{"binder": "B38", "normalised SPOT signal, Boehringer light units (BLU); mean over the file's lines of this peptide": 209}
{"binder": "B39", "normalised SPOT signal, Boehringer light units (BLU); mean over the file's lines of this peptide": 121}
{"binder": "B40", "normalised SPOT signal, Boehringer light units (BLU); mean over the file's lines of this peptide": 152}
{"binder": "B41", "normalised SPOT signal, Boehringer light units (BLU); mean over the file's lines of this peptide": 239}
{"binder": "B42", "normalised SPOT signal, Boehringer light units (BLU); mean over the file's lines of this peptide": 28.4}
{"binder": "B43", "normalised SPOT signal, Boehringer light units (BLU); mean over the file's lines of this peptide": 135}
{"binder": "B44", "normalised SPOT signal, Boehringer light units (BLU); mean over the file's lines of this peptide": 168}
{"binder": "B45", "normalised SPOT signal, Boehringer light units (BLU); mean over the file's lines of this peptide": 290}
{"binder": "B46", "normalised SPOT signal, Boehringer light units (BLU); mean over the file's lines of this peptide": 317}
{"binder": "B47", "normalised SPOT signal, Boehringer light units (BLU); mean over the file's lines of this peptide": 147}
{"binder": "B48", "normalised SPOT signal, Boehringer light units (BLU); mean over the file's lines of this peptide": 65.2}
{"binder": "B49", "normalised SPOT signal, Boehringer light units (BLU); mean over the file's lines of this peptide": 119}
{"binder": "B50", "normalised SPOT signal, Boehringer light units (BLU); mean over the file's lines of this peptide": 77.7}
{"binder": "B51", "normalised SPOT signal, Boehringer light units (BLU); mean over the file's lines of this peptide": 252}
{"binder": "B52", "normalised SPOT signal, Boehringer light units (BLU); mean over the file's lines of this peptide": 193}
{"binder": "B53", "normalised SPOT signal, Boehringer light units (BLU); mean over the file's lines of this peptide": 127}
{"binder": "B54", "normalised SPOT signal, Boehringer light units (BLU); mean over the file's lines of this peptide": 7260}
{"binder": "B55", "normalised SPOT signal, Boehringer light units (BLU); mean over the file's lines of this peptide": 467}
{"binder": "B56", "normalised SPOT signal, Boehringer light units (BLU); mean over the file's lines of this peptide": 188}
{"binder": "B57", "normalised SPOT signal, Boehringer light units (BLU); mean over the file's lines of this peptide": 314}
{"binder": "B58", "normalised SPOT signal, Boehringer light units (BLU); mean over the file's lines of this peptide": 357}
